# In US20170283495A1 (published 2017):
# T1: K18-biotin hepcidin-25 (biotin on K18)
# T1 peptide: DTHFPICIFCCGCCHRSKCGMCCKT
# T2: NT-biotin hepcidin-25 (NT-biotin (biotin label; NT is not spelled out, taken as the N-terminus))
# T2 peptide: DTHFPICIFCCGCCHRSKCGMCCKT
# How the values were obtained:
# K18-biotin hepcidin-25 = target: T1, K18-biotin hepcidin-25; assay: Biacore (SPR); 5 µg/ml 583
# NT-biotin hepcidin-25 = target: T2, NT-biotin hepcidin-25; assay: Biacore (SPR); 5 µg/ml 583
binder,measurement,setting,value
"murine anti-hepcidin MAb 583 (antibody, V domains shown) VH: QIQLVQSGPELKKPGETVKISCKASGYTFTNYGMNWVKQAPGKGLKWMGWINTYTGEPTYADDFKGRFAFSLETSASTAYLQINNLKNEDTATYFCTTYATSWYWGQGTTLTVSS VL: DIVLTQSPASLAVSLGQRATISCRASESVDSYGNSFMHWYQQKPGQPPKLLIYRASNLESGIPARFSGSGSRTDFTLTINPVEADDVATYYCQQSNEDLTFGGGTKLEIK",Ka,K18-biotin hepcidin-25,1.34e+11 M⁻¹
same,Ka,NT-biotin hepcidin-25,5.47e+10 M⁻¹
